The supplement of paper PMC10567573

B1: NETO1 (parent)
chain: KTSLLDQLTNTSGTVIGVTSCIVI

Variants of: B1
Assay: protein stability index of a GFP-peptide fusion (GPS, HEK-293T) (PSI 1-6); higher = more stable
Conditions: c terminus: a fixed tail appended
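Also: lentivirally expressed fusions sorted by FACS into six bins by GFP to DsRed ratio, PSI derived from sequencing read proportions per bin multiplied by bin number.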

Protein stability index of substitutions, site by site:
L5: V 2.59 | Q 3.37 | C 2.32 | R 3.13 | N 3.16 | P 2.45 | H 2.21 | A 3.63 | Y 2.3 | K 2.78 | M 3.86 | S 3.07 | F 2.32 | G 2.97 | I 2.8 | D 2.98 | W 3.45 | E 2.98
V15: N 2.74 | S 2.96 | M 2.87 | L 4.43 | C 2.06 | F 2.44 | T 3.07 | A 2.65 | I 3.08 | Y 3.74 | G 2.98 | H 1.99 | Q 2.33 | W 2.59 | R 2.45 | E 2.04 | K 3.5 | P 3.31 | D 3.39
G17: F 2.72 | H 3.23 | N 3.28 | Y 1.98 | M 2.55 | L 3.83 | S 3.25 | R 2.88 | K 2.64 | V 2.91 | W 2.9 | P 3.45 | I 3.43 | A 2.71 | E 2.69 | T 3.32 | Q 2.36 | D 3.37 | C 3.42
L4: Y 2.83
N10: Y 2.62 | M 3.51 | G 3.19 | K 3.15 | T 2.41 | F 2.3 | P 2.96 | W 3.97 | V 3.24 | E 3.35 | A 2.13 | I 3.08 | R 2.53 | L 3.8 | C 2.71 | H 2.78 | Q 2.33 | S 2.76 | D 2.47
I22: M 3.35 | T 3.07 | P 2.37 | L 2.08 | K 2.35 | A 2.12 | G 2.36 | E 2.32 | D 2.39 | V 3.37 | F 2.56 | H 2.1 | C 3.54 | S 1.45 | R 1.87 | N 1.72 | Q 2.15
T14: W 2.37 | M 2.62 | R 3.41 | C 2.61 | G 2.11 | Q 3.41 | E 3.18 | I 2.98 | F 2.82 | A 2.03 | K 3.88 | S 1.94 | V 3.29 | H 2.62 | N 2.98 | Y 2.64 | P 2.69 | L 2.47 | D 2.58
L8: K 2.99 | G 2 | W 3.83 | M 2.83 | I 3.38 | V 3.52 | T 3.48 | P 2.5 | Q 3.09 | N 2.56 | A 2.76 | R 3.04 | H 3.66 | C 3.29 | S 3.3 | Y 3.41 | F 2.71 | D 3.02 | E 2.35
T11: C 3.13 | R 1.74 | H 3.21 | A 3.75 | W 3.6 | P 3.64 | K 3.11 | D 3.42 | S 2.15 | F 2.35 | G 2.93 | M 3.29 | Q 2.81 | I 2.52 | E 5.03 | V 2.65 | N 2.29 | Y 2.33 | L 1.92
T9: S 2.72 | G 2.29 | L 3.09 | A 2.1 | D 2.58 | C 3.21 | V 2.63 | F 2.37 | M 2.4 | N 3.29 | R 2.21 | K 3.98 | H 2.95 | I 2.33 | Y 3.55 | W 3.88 | P 2.6
T19: H 4.49 | C 2.73 | I 2.2 | S 3.29 | L 3.78 | F 2.52 | V 2.91 | P 1.91 | K 2.97 | Q 3.55 | M 2.5 | W 2.06 | E 2.68 | D 1.59 | Y 2.79 | A 3.16 | G 3 | N 3.28 | R 3.08
G13: W 3.1 | V 2.66 | E 3.52 | A 2.12 | N 3.9 | I 2.57 | K 2.9 | S 3.19 | Y 3.2 | L 2.42 | F 3.7 | D 2.26 | T 2.23 | H 2.65 | M 3.17 | R 3.34 | C 2.5 | P 2.94
S20: V 2.44 | K 3.19 | N 3.04 | H 2.97 | L 2.79 | F 2.87 | E 4.15 | D 2.83 | Y 2.8 | Q 2.53 | T 2.37 | C 2.91 | G 2.14 | A 3.66 | I 3.08 | W 3.86 | M 2.89 | P 2.98 | R 4.13
D6: F 2.58 | K 1.98 | H 3.23 | V 2.61 | I 3.8 | Q 2.18 | E 3.74 | C 4.27 | P 1.82 | L 2.92 | T 3.2 | N 2.37 | Y 3.38 | G 2.31 | W 3.03 | S 2.52 | M 2.53 | R 3.02 | A 3.62
Q7: K 2.87 | T 2.05 | D 3.75 | R 1.64 | S 2.36 | C 2.94 | Y 2.47 | P 2.88 | I 2.08 | M 2.37 | E 2.27 | G 3.62 | W 2.18 | H 4.35 | F 2.62 | N 3.77 | V 3.45 | A 2.92 | L 3.27
V18: P 2.84 | D 2.55 | N 4.17 | I 2.84 | T 2.93 | C 1.92 | L 3.12 | Y 3.56 | K 3.8 | H 2.95 | Q 2.66 | W 4.09 | A 3.38 | M 3.92 | F 2.48 | S 3.67 | R 2.23 | G 3.24 | E 2.2
I16: C 3.8 | P 2.76 | T 3.23 | Y 2.12 | Q 2.94 | M 2.62 | R 2.79 | W 2.03 | E 2.85 | V 2.48 | N 2.27 | H 2.67 | S 3.79 | F 3.68 | K 3.1 | D 2.52 | A 2.44 | L 2.98
S12: G 3.53 | H 2.69 | M 1.87 | K 2.89 | E 2.87 | T 2.78 | W 1.75 | N 3.41 | P 2.51 | I 2.89 | Y 3.62 | Q 2.56 | V 3.35 | D 3.07 | A 2.96 | F 2.37 | L 2.43
C21: S 3.06 | Y 2.72 | I 2.7 | R 3.31 | L 3.29 | M 2.41 | Q 3.44 | K 3.29 | F 3.65 | P 2.13 | W 2.62 | N 3.1 | V 3.29 | H 2.2 | G 3.12 | T 2.88 | A 2.7 | E 2.83 | D 2.31
